According to patent US20030068630A1 (MYRIAD GENETICS, published 2003):

Molecular target: T1, Mineralocorticoid receptor (MCR) amino acids 603-985, Gal4 DNA-binding-domain bait fusion (Saccharomyces cerevisiae, UniProt P04386 1-147; P08235 603-984)
T1 construct: range 1-147;range 603-985; Bait made as a C-terminal fusion to Gal4 DBD in vector pGBTQ; also called MCR AA 603-985
Test: yeast two-hybrid (Gal4, beta-galactosidase read-out) with 4 uM aldosterone; bait MCR AA 603-985
Protocol: DNA was prepared from each clone, transformed by electroporation into E. coli strain KC8 (Clontech KC8 electrocompetent cells, cat. # C2023-1), and the cells were selected on ampicillin-containing plates in the absence of either tryptophane (selection for the bait plasmid) or leucine (selection for the brain library plasmid). DNA for both plasmids was prepared and sequenced by di-deoxynucleotide chain termination method. The identity of the bait cDNA insert was confirmed and the cDNA insert from the brain library plasmid was identified using BLAST program against public nucleotides and protein databases. Plasmids from the brain library (preys) were then individually transformed into yeast cells together with a plasmid driving the synthesis of lamin fused to the Gal4 DNA binding domain. Clones that gave a positive signal after β-galactosidase assay were considered false-positives and discarded. Plasmids for the remaining clones were transformed into yeast cells together with plasmid for the original bait. Clones that gave a positive signal after ,galactosidase assay were considered true positives.
A yeast two-hybrid system as described in Example 1 was performed in the presence of aldosterone. […]

binding result: binds
B1: PN19395 amino acids 120-397, Gal4 activation-domain prey fusion (other, Saccharomyces cerevisiae, not shown: small tags and cut ends)
chain: ANFNQSGNIADSSLSFTFTNSSNGPNLITTQTNSQALSQPIASSNVHDNFMNNEITASKIDDGNNSKPLSPGWTDQTAYNAFGITTGMFNTTTMDDVYNYLFDDEDTPPNPKKELMPGAGLLPIPTPNPLTTLGVSLSSLGAIPAAALDPNIATLGEIPQPPLMGNVDPSKIDEIRRTVYVGNLNSQTTTADQLLEFFKQVGEVKFVRMAGDETQPTRFAFVEFADQNSVPRALAFNGVMFGDRPLKINHSNNAIVKPPEMTPQAAAKELEEVMKRVREAQSFISAAIEPESGKSNERKGGRSRSHTRSKSRSSSKSHSRRKRSQSKHRSRSHNRSRSRQKDRRRSKSPHKKRSKSRERRKSRSRSHSRDKRKDTREKIKEKERVKEKDREK
notes: range 768-881; Novel 624 amino acid protein; Clone from a human brain cDNA library in pACT2
